The record followed here is patent US20130315910A1 (Xencor, published 2013).

For orientation: EC50 (read off the curve) means the concentration at which the effect is half-maximal. A lower EC50 (read off the curve) goes with greater potency.

Experiment [1] deals with T1, mFcγRIIb (Mus musculus, UniProt P08101).
T1 construct: extracellular region, C-terminal His- and GST-tag; also called mouse FcγRII
T1 sequence (receptor extracellular region, looked up): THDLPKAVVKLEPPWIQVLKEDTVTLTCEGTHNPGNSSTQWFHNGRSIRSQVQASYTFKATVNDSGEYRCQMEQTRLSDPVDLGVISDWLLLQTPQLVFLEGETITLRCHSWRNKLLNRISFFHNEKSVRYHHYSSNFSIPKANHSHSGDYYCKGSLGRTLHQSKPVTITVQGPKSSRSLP
The experiment in a line: SPR.

Experiment [2] deals with T2, mFcγRIV.
T2 construct: also called mouse FcγRIV; not shown: C-terminal His and GST tags (named only on our card)
T2 chain: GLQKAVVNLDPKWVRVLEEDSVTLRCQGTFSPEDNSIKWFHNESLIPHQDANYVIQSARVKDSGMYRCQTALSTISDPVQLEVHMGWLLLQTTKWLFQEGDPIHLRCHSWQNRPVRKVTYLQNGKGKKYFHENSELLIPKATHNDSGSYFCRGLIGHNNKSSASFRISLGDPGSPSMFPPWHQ
The experiment in a line: SPR. A general note: In SPR one partner is held on a chip, and binding of the other changes the refractive index at the surface.

The target of experiment [3] is T3, cynoFcγRIIb (Macaca fascicularis, UniProt A0A140HDP4).
T3 construct: extracellular region, C-terminal His- and GST-tag; also called cynomolgus monkey FcγRIIb
T3 sequence (receptor extracellular region): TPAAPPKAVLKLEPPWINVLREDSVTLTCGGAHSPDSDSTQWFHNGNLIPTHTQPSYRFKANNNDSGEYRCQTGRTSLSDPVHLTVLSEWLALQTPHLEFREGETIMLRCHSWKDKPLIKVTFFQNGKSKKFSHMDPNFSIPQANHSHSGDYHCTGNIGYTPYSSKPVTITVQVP
The experiment in a line: SPR.

In experiment [4] the target is T4, cynoFcγRIIIa (Macaca fascicularis, UniProt Q8SPW2).
T4 construct: extracellular region, C-terminal His- and GST-tag; also called cynomolgus monkey FcγRIIIa
The experiment in a line: SPR.

In experiment [5] the target is T5, human FcγRIIb on cells (transfected HEK293T cells; primary human B cells) (human, UniProt P31994 43-310).
T5 construct: whole, on cells; also called CD32b
T5 sequence (looked up): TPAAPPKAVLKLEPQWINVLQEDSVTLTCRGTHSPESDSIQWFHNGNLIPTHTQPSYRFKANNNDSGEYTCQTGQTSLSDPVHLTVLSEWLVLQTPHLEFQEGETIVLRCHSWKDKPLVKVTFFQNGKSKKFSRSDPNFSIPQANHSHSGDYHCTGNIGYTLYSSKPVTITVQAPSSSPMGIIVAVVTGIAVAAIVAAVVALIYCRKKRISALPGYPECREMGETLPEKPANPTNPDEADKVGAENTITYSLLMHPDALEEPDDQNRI
The experiment in a line: flow cytometry on FcγRIIb-transfected 293T cells [top left panel]. Here is the method: In order to validate the Biacore data and evaluate receptor binding of the variants on the cell surface, binding of select antibodies to cells expressing FcγRIIb was measured. […] HEK293T cells in DMEM with 10% FBS were transfected with human FcγRIIb cDNA in pCMV6 expression vector (Origene Technologies, Rockville, Md.), cultured for 3 days, harvested, washed twice in PBS, resuspended in PBS with 0.1% BSA (PBS/BSA), and aliquoted at 2×10^5 cells per well into 96-well microtiter plates. Fc variant antibodies were serially diluted in PBS/BSA then added to the cells and incubated with mixing for 1 h at room temperature. After extensive washing with PBS/BSA, phycoerythrin (PE)-labeled anti-human-Fab-specific goat F(ab′)2 fragment was added for detection. Cells were incubated for 30 min at room temperature, washed, and resuspended in PBS/BSA. Binding was evaluated using a FACSCanto II flow cytometer (BD Biosciences, San Jose, Calif.), and the mean fluorescence intensity (MFI) was plotted as a function of antibody concentration using Graph Pad Prism software (GraphPad Software, San Diego, Calif.) from which half-maximal binding (EC50) values were determined by sigmoidal dose response modeling.
(In flow cytometry, cells or beads pass a laser one at a time.)
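For Fold vs WT IgG1 (off-rate) in this document: fold improvement over WT IgG1 so higher means slower dissociation than WT.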

T4 sequence (Q8SPW2 17-208): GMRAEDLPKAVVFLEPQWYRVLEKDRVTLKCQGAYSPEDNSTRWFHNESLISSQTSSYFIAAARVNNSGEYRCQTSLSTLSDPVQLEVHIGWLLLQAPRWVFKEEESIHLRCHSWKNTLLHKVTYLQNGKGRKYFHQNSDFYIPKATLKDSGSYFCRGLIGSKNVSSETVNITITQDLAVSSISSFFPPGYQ

B1: anti-CD19 antibody HuAM4G7 IgG1 S267E (antibody)
heavy: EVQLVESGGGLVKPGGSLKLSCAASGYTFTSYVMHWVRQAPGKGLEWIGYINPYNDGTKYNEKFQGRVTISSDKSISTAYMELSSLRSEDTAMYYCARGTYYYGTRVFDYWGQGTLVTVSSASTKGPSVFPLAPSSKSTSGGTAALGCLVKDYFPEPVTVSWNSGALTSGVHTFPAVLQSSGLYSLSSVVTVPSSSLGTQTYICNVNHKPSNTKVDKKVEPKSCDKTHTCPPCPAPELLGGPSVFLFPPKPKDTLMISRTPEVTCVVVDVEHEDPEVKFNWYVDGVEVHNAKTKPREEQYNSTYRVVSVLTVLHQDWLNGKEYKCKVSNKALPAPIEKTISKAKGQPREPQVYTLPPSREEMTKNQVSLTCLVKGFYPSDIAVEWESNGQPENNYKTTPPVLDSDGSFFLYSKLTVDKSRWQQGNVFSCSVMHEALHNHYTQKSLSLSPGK
light: DIVMTQSPATLSLSPGERATLSCRSSKSLQNVNGNTYLYWFQQKPGQSPQLLIYRMSNLNSGVPDRFSGSGSGTEFTLTISSLEPEDFAVYYCMQHLEYPITFGAGTKLEIKRTVAAPSVFIFPPSDEQLKSGTASVVCLLNNFYPREAKVQWKVDNALQSGNSQESVTEQDSKDSTYSLSSTLTLSKADYEKHKVYACEVTHQGLSSPVTKSFNRGEC
notes: Positions in EU numbering; copies: 2 + 2
As for B1, the “Fold vs WT IgG1 (off-rate)” value in experiment [1] is 1.44 fold; in experiment [2] it was 0.77 fold; in experiment [3], 1.09 fold; in experiment [4], 0.515 fold. Besides, the “EC50 (read off the curve)” value in experiment [5] was about 10 ng/mL.
